Measured values published in the supplement of paper PMC9112550, “Optimization of the antimicrobial peptide Bac7 by deep mutational scanning” (BMC Biology, 2022).

Test system: Escherichia coli TOP10
Test: shrunken log2 fold change of peptide-encoding DNA abundance (4.5 h post-induction vs induction); higher = less antimicrobial activity (less host growth inhibition)
Conditions: time post-induction: 4.5 h; library: site-saturation at positions 5, 18, 19, 20
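Further: peptides expressed intracellularly from a pBAD plasmid library in pooled LB shake-flask culture, induced with 0.3% L-arabinose, DNA abundance read by NGS, three biological replicates, DESeq2 with apeglm shrinkage.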

| Sequence | shrunken log2 fold change |
| --- | --- |
| RRIRFRPPRLPRPRPRPQFAPRP | 0.0456 |
| RRIRFRPPRLPRPRPRPQFNPRP | -0.628 |
| RRIRFRPPRLPRPRPRPQGKPRP | -0.227 |
| RRIRFRPPRLPRPRPRPQHRPRP | -0.0907 |
| RRIRFRPPRLPRPRPRPQKCPRP | -0.332 |
| RRIRFRPPRLPRPRPRPQMWPRP | -0.0128 |
| RRIRFRPPRLPRPRPRPQPMPRP | 0.302 |
| RRIRFRPPRLPRPRPRPQQKPRP | 0.0925 |
| RRIRFRPPRLPRPRPRPQQMPRP | -0.0245 |
| RRIRFRPPRLPRPRPRPQRGPRP | 0.353 |
| RRIRFRPPRLPRPRPRPQRHPRP | -0.0437 |
| RRIRFRPPRLPRPRPRPQRMPRP | -0.29 |
| RRIRFRPPRLPRPRPRPQRRPRP | -0.177 |
| RRIRFRPPRLPRPRPRPQYDPRP | -0.75 |
| RRIRFRPPRLPRPRPRPQYFPRP | -0.416 |
| RRIRFRPPRLPRPRPRPQYNPRP | -1.05 |
| RRIRFRPPRLPRPRPRPQYWPRP | -0.462 |
| RRIRFRPPRLPRPRPRPRDTPRP | 0.0411 |
| RRIRFRPPRLPRPRPRPRENPRP | 0.449 |
| RRIRFRPPRLPRPRPRPREQPRP | 0.204 |
| RRIRFRPPRLPRPRPRPRFFPRP | 0.0547 |
| RRIRFRPPRLPRPRPRPRFYPRP | -0.0297 |
| RRIRFRPPRLPRPRPRPRGQPRP | 0.415 |
| RRIRFRPPRLPRPRPRPRGRPRP | 0.454 |
| RRIRFRPPRLPRPRPRPRGVPRP | 0.0819 |

| Sequence | shrunken log2 fold change |
| --- | --- |
| RRIRFRPPRLPRPRPRPRHAPRP | 0.389 |
| RRIRFRPPRLPRPRPRPRHFPRP | 0.0931 |
| RRIRFRPPRLPRPRPRPRHNPRP | -0.275 |
| RRIRFRPPRLPRPRPRPRKCPRP | -0.0611 |
| RRIRFRPPRLPRPRPRPRKEPRP | -0.0425 |
| RRIRFRPPRLPRPRPRPRLRPRP | 0.378 |
| RRIRFRPPRLPRPRPRPRNRPRP | -0.182 |
| RRIRFRPPRLPRPRPRPRNWPRP | 0.19 |
| RRIRFRPPRLPRPRPRPRPQPRP | 0.684 |
| RRIRFRPPRLPRPRPRPRPRPRP | 1.65 |
| RRIRFRPPRLPRPRPRPRQNPRP | 0.353 |
| RRIRFRPPRLPRPRPRPRSGPRP | 0.444 |
| RRIRFRPPRLPRPRPRPRSIPRP | -0.256 |
| RRIRFRPPRLPRPRPRPRTFPRP | -0.179 |
| RRIRFRPPRLPRPRPRPRVYPRP | -0.217 |
| RRIRFRPPRLPRPRPRPRYDPRP | -0.408 |
| RRIRFRPPRLPRPRPRPRYHPRP | -0.295 |
| RRIRFRPPRLPRPRPRPSAHPRP | -0.352 |
| RRIRFRPPRLPRPRPRPSCFPRP | -0.0773 |
| RRIRFRPPRLPRPRPRPSDVPRP | 0.0142 |
| RRIRFRPPRLPRPRPRPSEDPRP | 0.00214 |
| RRIRFRPPRLPRPRPRPSGDPRP | -0.202 |
| RRIRFRPPRLPRPRPRPSGIPRP | -0.287 |
| RRIRFRPPRLPRPRPRPSGRPRP | 0.0486 |
| RRIRFRPPRLPRPRPRPSHKPRP | -0.121 |

| Sequence | shrunken log2 fold change |
| --- | --- |
| RRIRFRPPRLPRPRPRPSKSPRP | -0.123 |
| RRIRFRPPRLPRPRPRPSLFPRP | -0.291 |
| RRIRFRPPRLPRPRPRPSLPPRP | 0.0593 |
| RRIRFRPPRLPRPRPRPSMKPRP | -0.753 |
| RRIRFRPPRLPRPRPRPSPEPRP | 0.24 |
| RRIRFRPPRLPRPRPRPSPKPRP | 0.188 |
| RRIRFRPPRLPRPRPRPSQCPRP | 0.153 |
| RRIRFRPPRLPRPRPRPSRDPRP | 1.18 |
| RRIRFRPPRLPRPRPRPSSFPRP | -0.227 |
| RRIRFRPPRLPRPRPRPSSPPRP | -0.284 |
| RRIRFRPPRLPRPRPRPSVIPRP | -0.339 |
| RRIRFRPPRLPRPRPRPSVTPRP | -0.322 |
| RRIRFRPPRLPRPRPRPSWMPRP | -0.0113 |
| RRIRFRPPRLPRPRPRPSWQPRP | -0.149 |
| RRIRFRPPRLPRPRPRPTANPRP | -0.0711 |
| RRIRFRPPRLPRPRPRPTCMPRP | -0.0546 |
| RRIRFRPPRLPRPRPRPTCQPRP | -0.0887 |
| RRIRFRPPRLPRPRPRPTDHPRP | -0.323 |
| RRIRFRPPRLPRPRPRPTEAPRP | 0.332 |
| RRIRFRPPRLPRPRPRPTEIPRP | -0.413 |
| RRIRFRPPRLPRPRPRPTFHPRP | -0.385 |
| RRIRFRPPRLPRPRPRPTFKPRP | 0.0617 |
| RRIRFRPPRLPRPRPRPTFQPRP | -0.156 |
| RRIRFRPPRLPRPRPRPTFYPRP | -0.366 |
| RRIRFRPPRLPRPRPRPTGFPRP | 0.0467 |

| Sequence | shrunken log2 fold change |
| --- | --- |
| RRIRFRPPRLPRPRPRPTGGPRP | 0.259 |
| RRIRFRPPRLPRPRPRPTGTPRP | 0.0314 |
| RRIRFRPPRLPRPRPRPTGWPRP | 0.456 |
| RRIRFRPPRLPRPRPRPTHFPRP | -0.227 |
| RRIRFRPPRLPRPRPRPTIVPRP | 0.0438 |
| RRIRFRPPRLPRPRPRPTLDPRP | 0.0939 |
| RRIRFRPPRLPRPRPRPTLMPRP | 0.0425 |
| RRIRFRPPRLPRPRPRPTMRPRP | 0.605 |
| RRIRFRPPRLPRPRPRPTQYPRP | -0.261 |
| RRIRFRPPRLPRPRPRPTRGPRP | 0.54 |
| RRIRFRPPRLPRPRPRPTRVPRP | 0.616 |
| RRIRFRPPRLPRPRPRPTSWPRP | 0.3 |
| RRIRFRPPRLPRPRPRPTWQPRP | 0.145 |
| RRIRFRPPRLPRPRPRPTYLPRP | -0.243 |
| RRIRFRPPRLPRPRPRPTYPPRP | -0.497 |
| RRIRFRPPRLPRPRPRPVDEPRP | 0.0494 |
| RRIRFRPPRLPRPRPRPVDIPRP | -0.338 |
| RRIRFRPPRLPRPRPRPVEAPRP | -0.103 |
| RRIRFRPPRLPRPRPRPVFKPRP | -0.57 |
| RRIRFRPPRLPRPRPRPVFSPRP | -0.293 |
| RRIRFRPPRLPRPRPRPVGDPRP | 0.535 |
| RRIRFRPPRLPRPRPRPVGMPRP | 0.348 |
| RRIRFRPPRLPRPRPRPVGTPRP | 0.00754 |
| RRIRFRPPRLPRPRPRPVIYPRP | -0.588 |
| RRIRFRPPRLPRPRPRPVKCPRP | -0.0573 |

| Sequence | shrunken log2 fold change |
| --- | --- |
| RRIRFRPPRLPRPRPRPVKEPRP | -0.0554 |
| RRIRFRPPRLPRPRPRPVKFPRP | -0.0322 |
| RRIRFRPPRLPRPRPRPVKQPRP | -0.0303 |
| RRIRFRPPRLPRPRPRPVKYPRP | -0.147 |
| RRIRFRPPRLPRPRPRPVLKPRP | -0.24 |
| RRIRFRPPRLPRPRPRPVMTPRP | -0.218 |
| RRIRFRPPRLPRPRPRPVNGPRP | -0.746 |
| RRIRFRPPRLPRPRPRPVPRPRP | 0.384 |
| RRIRFRPPRLPRPRPRPVRMPRP | 0.0345 |
| RRIRFRPPRLPRPRPRPVRWPRP | 0.632 |
| RRIRFRPPRLPRPRPRPVSKPRP | -0.358 |
| RRIRFRPPRLPRPRPRPVTRPRP | -0.0263 |
| RRIRFRPPRLPRPRPRPVVQPRP | -0.119 |
| RRIRFRPPRLPRPRPRPVWWPRP | 0.148 |
| RRIRFRPPRLPRPRPRPVYMPRP | -0.969 |
| RRIRFRPPRLPRPRPRPVYYPRP | -1.27 |
| RRIRFRPPRLPRPRPRPWALPRP | 0.00634 |
| RRIRFRPPRLPRPRPRPWCSPRP | -0.714 |
| RRIRFRPPRLPRPRPRPWCWPRP | 0.155 |
| RRIRFRPPRLPRPRPRPWDTPRP | -0.421 |
| RRIRFRPPRLPRPRPRPWGHPRP | -0.000438 |
| RRIRFRPPRLPRPRPRPWGWPRP | 0.346 |
| RRIRFRPPRLPRPRPRPWHFPRP | -0.542 |
| RRIRFRPPRLPRPRPRPWHKPRP | -0.413 |
| RRIRFRPPRLPRPRPRPWHNPRP | 0.0654 |

| Sequence | shrunken log2 fold change |
| --- | --- |
| RRIRFRPPRLPRPRPRPWHSPRP | -0.018 |
| RRIRFRPPRLPRPRPRPWKCPRP | 0.0039 |
| RRIRFRPPRLPRPRPRPWKGPRP | -0.0869 |
| RRIRFRPPRLPRPRPRPWLCPRP | -0.173 |
| RRIRFRPPRLPRPRPRPWMCPRP | -0.0872 |
| RRIRFRPPRLPRPRPRPWMHPRP | -0.0282 |
| RRIRFRPPRLPRPRPRPWNWPRP | 0.0169 |
| RRIRFRPPRLPRPRPRPWPNPRP | -0.086 |
| RRIRFRPPRLPRPRPRPWRGPRP | 0.172 |
| RRIRFRPPRLPRPRPRPWRLPRP | -0.799 |
| RRIRFRPPRLPRPRPRPWWNPRP | -0.26 |
| RRIRFRPPRLPRPRPRPWYIPRP | -0.623 |
| RRIRFRPPRLPRPRPRPYAHPRP | -0.18 |
| RRIRFRPPRLPRPRPRPYAPPRP | -0.496 |
| RRIRFRPPRLPRPRPRPYEAPRP | -0.493 |
| RRIRFRPPRLPRPRPRPYFTPRP | -1.09 |
| RRIRFRPPRLPRPRPRPYFYPRP | -0.808 |
| RRIRFRPPRLPRPRPRPYGVPRP | -0.00783 |
| RRIRFRPPRLPRPRPRPYIFPRP | -0.829 |
| RRIRFRPPRLPRPRPRPYISPRP | -0.295 |
| RRIRFRPPRLPRPRPRPYKPPRP | 0.108 |
| RRIRFRPPRLPRPRPRPYLNPRP | -0.454 |
| RRIRFRPPRLPRPRPRPYLWPRP | -0.309 |
| RRIRFRPPRLPRPRPRPYMDPRP | -0.0184 |
| RRIRFRPPRLPRPRPRPYMNPRP | -0.818 |
